Where a chain is given by its changes, count along the chain named.
B1: aptamer ID 4 (ssRNA)
RNA: GGAUACUAGGGCAUUAAUGUUACCAGUGUAGUCC
modifications: 2'-F at U7,U15,U20,U27,U29; 2'-OH at G11,G26,G28; all others 2'-OMe; 3' idT
B2: aptamer ID 4(2) (ssRNA)
RNA: B1 RNA
modifications: 2'-F at U7,G11,U15,U20,G26,U27,U29; 2'-OH at G28; all others 2'-OMe; 3' idT
B3: aptamer ID 4(4) (ssRNA)
RNA: B1 RNA
modifications: 2'-F at U7,G11,U15,U20,G26,U27,U29; 2'-OH at G28; all others 2'-OMe; PS between G28 and U29; 3' idT
B4: aptamer ID 4(3) (ssRNA)
RNA: B1 RNA
modifications: 2'-F at U7,G11,U15,U20,U27,U29; 2'-OH at G26,G28; all others 2'-OMe; PS between U27 and G28; 3' idT
B5: aptamer ID 4(1) (ssRNA)
RNA: B1 RNA
modifications: 2'-F at U7,G11,U15,U20,U27,U29; 2'-OH at G26,G28; all others 2'-OMe; 3' idT
B6: aptamer ID 6 (ssRNA)
RNA: AGGGAUACUAGGGCAUUAAUGUUACCAGUGUAGUCCC
modifications: 2'-F at U9,U17,U22,U29,U31; 2'-OH at G13,G28,G30; all others 2'-OMe; 3' idT
B7: aptamer ID 5 (ssRNA)
RNA: GGGGAUACUAGGGCAUUAAUGUUACCAGUGUAGUCCCC
modifications: 2'-F at U9,U17,U22,U29,U31; 2'-OH at G13,G28,G30; all others 2'-OMe; 3' idT
B8: aptamer ID 3(8) (ssRNA)
RNA: GGGAUACUAGGGCAUUAAUGUUACCAGUGUAGUCCC
modifications: all C and U 2'-F; 2'-OMe at G1,G2,G3,A4,A9,G10,G11,A14,A17,A18,G20,A23,A26; other purines 2'-OH; 3' idT
B9: aptamer ID 3(12) (ssRNA)
RNA: B8 RNA
modifications: 2'-OMe at G1,G2,G3,A4,A9,G10,G11,A14,A17,A18,G20,A23,A26,U33,C34,C35,C36; other C and U 2'-F; other purines 2'-OH; 3' idT
B10: aptamer ID 3(31) (ssRNA)
RNA: B8 RNA
modifications: 2'-F at U8,U16,U21,U28,U30; 2'-OH at G12,G27,G29; all others 2'-OMe; PS between G27 and U28
B11: aptamer ID 3(33) (ssRNA)
RNA: B8 RNA
modifications: 2'-F at U8,U16,U21,U28,U30; 2'-OH at G12,G27,G29; all others 2'-OMe; PS between G29 and U30
B12: aptamer ID 3(32) (ssRNA)
RNA: B8 RNA
modifications: 2'-F at U8,U16,U21,U28,U30; 2'-OH at G12,G27,G29; all others 2'-OMe; PS between U28 and G29
B13: aptamer ID 3(29) (ssRNA)
RNA: B8 RNA
modifications: 2'-F at U8,U16,U21,U28,U30; 2'-OH at G12,G27,G29; all others 2'-OMe; PS between G12 and C13
B14: aptamer ID 3(16) (ssRNA)
RNA: B8 RNA
modifications: 2'-OMe at G1,G2,G3,A4,C7,A9,G10,G11,A14,A17,A18,G20,A23,A26; other C and U 2'-F; other purines 2'-OH
B15: aptamer ID 3(15) (ssRNA)
RNA: B8 RNA
modifications: 2'-OMe at G1,G2,G3,A4,A9,G10,G11,A14,A17,A18,G20,A23,C24,C25,A26; other C and U 2'-F; other purines 2'-OH
B16: aptamer ID 3(28) (ssRNA)
RNA: B8 RNA
modifications: 2'-F at U8,U16,U21,U28,U30; 2'-OH at G12,G27,G29; all others 2'-OMe; PS between G11 and G12
B17: aptamer ID 3(13) (ssRNA)
RNA: B8 RNA
modifications: 2'-OMe at G1,G2,G3,A4,A9,G10,G11,A14,U15,U16,A17,A18,U19,G20,A23,A26; other C and U 2'-F; other purines 2'-OH
B18: aptamer ID 3(18) (ssRNA)
RNA: B8 RNA
modifications: 2'-F at U8,U16,U21,U28,U30; 2'-OH at G12,G27,G29; all others 2'-OMe
B19: aptamer ID 3(14) (ssRNA)
RNA: B8 RNA
modifications: 2'-OMe at G1,G2,G3,A4,A9,G10,G11,A14,A17,A18,G20,U22,A23,A26; other C and U 2'-F; other purines 2'-OH
B20: aptamer ID 3(25) (ssRNA)
RNA: B8 RNA
modifications: 2'-F at U8,G12,U16,U21,U28,U30; 2'-OH at G27,G29; all others 2'-OMe
B21: aptamer ID 3(27) (ssRNA)
RNA: B8 RNA
modifications: 2'-F at U8,U16,U21,U28,G29,U30; 2'-OH at G12,G27; all others 2'-OMe
B22: aptamer ID 3(23) (ssRNA)
RNA: B8 RNA
modifications: 2'-F at U8,U16,U21,U28,U30; G12 DNA (2'-H); 2'-OH at G27,G29; all others 2'-OMe
B23: aptamer ID 3(26) (ssRNA)
RNA: B8 RNA
modifications: 2'-F at U8,U16,U21,G27,U28,U30; 2'-OH at G12,G29; all others 2'-OMe
B24: aptamer ID 3(24) (ssRNA)
RNA: B8 RNA
modifications: 2'-F at U8,U16,U21,U28,U30; G27 DNA (2'-H); 2'-OH at G12,G29; all others 2'-OMe
B25: aptamer ID 3(30) (ssRNA)
RNA: B8 RNA
modifications: 2'-F at U8,U16,U21,U28,U30; 2'-OH at G12,G27,G29; all others 2'-OMe; PS between A26 and G27
B26: aptamer ID 3(21) (ssRNA)
RNA: B8 RNA
modifications: 2'-F at U8,U16,U21,U28,U30; 2'-OH at G12,G27,G29; all others 2'-OMe; 5' PEG 40K (GL2-400TS)-C6; 3' idT
B27: aptamer ID 3(19) (ssRNA)
RNA: B8 RNA
modifications: 2'-F at U8,U16,U21,U28,U30; 2'-OH at G12,G27,G29; all others 2'-OMe; 3' idT
B28: aptamer ID 10 (ssRNA)
RNA: B8 RNA with A14G, U19C
modifications: 2'-F at U8,U16,U21,U28,U30; 2'-OH at G12,G27,G29; all others 2'-OMe
B29: aptamer ID 12 (ssRNA)
RNA: B8 RNA with A17U
modifications: 2'-F at U8,U16,U21,U28,U30; 2'-OH at G12,G27,G29; all others 2'-OMe
B30: aptamer ID 8 (ssRNA)
RNA: B8 RNA with G1C, C36G
modifications: 2'-F at U8,U16,U21,U28,U30; 2'-OH at G12,G27,G29; all others 2'-OMe; 5' NH2; 3' idT
B31: aptamer ID 9 (ssRNA)
RNA: B8 RNA with G1C, G2C, C35G, C36G
modifications: 2'-F at U8,U16,U21,U28,U30; 2'-OH at G12,G27,G29; all others 2'-OMe; 5' NH2; 3' idT
B32: aptamer ID 11 (ssRNA)
RNA: B8 RNA with A14C, U19G
modifications: 2'-F at U8,U16,U21,U28,U30; 2'-OH at G12,G27,G29; all others 2'-OMe

What follows are binders tested against T1, FGF2 (Homo sapiens, UniProt P09038 P09038:135-288) (assay: cell_activity; HUVEC proliferation, FGF2 0.58 nM). Conditions: tags: Peprotech.
Description: (§1) Human umbilical vein endothelial cells (HUVEC) were seeded in a 96 well flat bottom plate at 5×10³ cells per well, and cultured overnight using a medium EGM-2 Bullet Kit for endothelial cells (CC-3162 manufactured by Lonza) containing 2% fetal bovine serum and growth factors. Thereafter, the medium was discarded, the cells were washed twice with PBS buffer, and a mixture of the aptamer shown by aptamer ID 3(21) (5, 2.5, 1, 0.5 nM) and FGF2 (final concentration 0.5 nM), dissolved in a medium exclusively for endothelial cells containing 2% fetal bovine serum, was added. After 72 hr, viable cell number was examined using Cell Counting Kit-8. For the measurement of absorbance, a microplate reader (450 nm) was used. One sample was measured at n=3. As a positive control, anti-FGF2 antibody Anti-FGF, basic (Ab-3) Mouse mAb (3H3) (manufactured by Calbiochem) were used. With the OD value per well obtained by the addition of FGF2 alone and culture of the cells for 3 days as inhibitory activity 0%, and that of the cell obtained by FGF2 free culture for 3 days as inhibitory activity 100%, the inhibitory activity of the aptamer was calculated from the OD value per well obtained by culturing with the addition of a mixture of FGF2 and the aptamer. As a result, it was shown that the aptamer shown by aptamer ID 3(21) has a high inhibitory activity against FGF2.
By a method similar to the above except that the 96 well flat bottom plate was changed to a collagen-coated one, the activity of various aptamers was evaluated. The concentration of FGF2 added was 0.58 nM. As a negative control RNA, Macugen (registered trade mark) sequence without addition of PEG, and with C6 modification of the 5′-terminal and idT modification of the 3′-terminal was used.

T1 sequence (P09038 135-288, one chain of several): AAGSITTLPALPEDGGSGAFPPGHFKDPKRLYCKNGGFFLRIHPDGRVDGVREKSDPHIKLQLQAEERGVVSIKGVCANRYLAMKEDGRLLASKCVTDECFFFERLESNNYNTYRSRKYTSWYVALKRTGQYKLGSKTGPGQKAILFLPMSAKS

Binder	IC50
B1	5 nM
B2	5.1 nM
B3	4.5 nM
B4	4.6 nM
B5	3.8 nM
B6	3.1 nM
B7	2.6 nM
B8	27 nM
B9	21 nM
B10	10 nM
B11	4 nM
B12	4 nM
B13	3.1 nM
B14	7.9 nM
B15	14 nM
B16	4 nM
B17	15 nM
B18	2.6 nM
B19	12 nM
B20	5.1 nM
B21	3.7 nM
B22	5.3 nM
B23	3 nM
B24	7.3 nM
B25	3.3 nM

The binders below were run against T1, FGF2 (assay: inhibition; SPR inhibition of FGF2-FGFR1alpha(IIIc); each 0.1 uM). Conditions: tags: Peprotech.
Description: BIAcore2000 manufactured by BIAcore was used for the measurement. As directed in BIAcore Company's protocol, Protein A (21181, manufactured by PIERCE) was immobilized on a CM5 sensor chip. About 1,000 RU of human FGFR1α (IIIc), R2α (IIIc), R3 (IIIc), R4 (manufactured by R&D Systems) fused with the Fc portion of IgG (manufactured by R&D systems) was each immobilized thereon. As analyte, a mixture of FGF2 (0.1 μM), heparin (0.1 μM) (manufactured by Pfizer) and aptamer (0.15 μM) was flown. Before an inhibitory test, a mixture of FGF2 and heparin was confirmed to bind to 4 kinds of receptors. […] A sensorgram showing that the aptamer shown by aptamer ID 1 inhibits binding of FGF2 and FGFR1α(IIIc), 2α(IIIc), 3(IIIc), 4 is shown in FIG. 2.
In addition, the inhibitory rate against each of the 4 kinds of receptors was determined. The inhibitory rate was determined with the maximum binding amount of the FGF2 and heparin mixture as 0, and the binding amount with an injection buffer alone as 100. The binding amount here means the RU value of the peak top of sensorgram. The inhibitory rate was calculated. […] The inhibitory rate of other aptamers was not more than 50%.
To enhance FGF2-binding activity, stability, drug deliverability and the like, the nucleic acids shown by aptamer IDs 3(1)-3(40), aptamer IDs 4 and 4(1)-4(4), aptamer ID 5 and aptamer ID 6 were chemically synthesized based on the aptamer shown in SEQ ID NO: 3. Here, the aptamer shown by aptamer ID 4 is the aptamer shown by aptamer ID 3(19) wherein one G(M) at the 5′-terminal and one C(M) at the 3′-terminal have been deleted. The aptamer shown by aptamer ID 5 is the aptamer shown by aptamer ID 3(19) wherein one G(M) has been added at the 5′-terminal and one C(M) has been added at the 3′-terminal. The aptamer shown by aptamer ID 6 is the aptamer shown by aptamer ID 3(19) wherein A(M) alone has been added at the 5′-terminal. These nucleic acids were produced by chemical synthesis.

Binder	activity
B1	95%
B2	94%
B3	96%
B4	96%
B5	93%
B6	93%
B7	94%
B8	84%
B9	89%
B10	91%
B11	90%
B12	91%
B13	91%
B14	87%
B15	86%
B16	91%
B26	97%
B17	88%
B18	89%
B19	87%
B20	90%
B27	93%
B21	99%
B22	91%
B23	99%
B24	90%
B25	99%

The binders below were run against T1, FGF2 (assay: cell_activity; HUVEC proliferation). Conditions: tags: Peprotech.
Description: as §1
By a method similar to that in Example 5, the inhibitory activity of the aptamers shown by aptamer IDs 8-12 was measured.

Binder	IC50
B28	4.9 nM
B29	2.3 nM
B27	3.4 nM
B30	5.6 nM
B31	3.7 nM
B32	13 nM

These binders were tested against T1, FGF2 (assay: cell_activity; HUVEC proliferation, FGF2 0.5 nM). Conditions: tags: Peprotech.
Description: as §1

Binder	IC50
B26	~1 nM

Reference: US20170157165, “APTAMER FOR FGF2 AND USE THEREOF” (RIBOMIC INC., published 2017)
